T1: Human CD24 (human, UniProt P25063 27-59, limits assumed)
T1 chain (looked up): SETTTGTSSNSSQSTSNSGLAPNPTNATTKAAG

T2: human CD24 on cells (human, UniProt P25063 27-59)
T2 construct: whole, on cells; One molecule for all cell lines; the cell line is named under assay or readout; also called cell surface CD24; cell-based CD24
T2 chain (looked up): T1 chain (looked up)

B1: VH2 + VL2 (humanized 4451) (antibody, V domains shown)
VH: QVQLVQSGAEVKKPGASVKVSCKASGYDFTGYHMNWVRQAPGQGLEWIGEINPITSDKTFNQKFKSRVTMTVDTSISTAYMELSRLRSDDTAVYYCARRDYGTSLDYWGQGTTVTVSS
VL: DIQLTQSPSFLSASVGDRVTITCRASKSISKYLAWYQQKPGKAPRLLIYAGSTLHSGVPSRFRGSGSGTEFTLTISSLQPEDFATYYCQQHNEYPITFGQGTKLEIK
notes: IgG expressed in HEK293
B2: VH4 + VL4 (humanized 4451) (antibody, V domains shown)
VH: B1 VH with R38K, V68A, T74R
VL: B1 VL with T22Y, V58I
notes: IgG expressed in HEK293
B3: VH2 + VL4 (humanized 4451) (antibody, V domains shown)
VH: B1 VH
VL: B1 VL with T22Y, V58I
notes: IgG expressed in HEK293
B4: Antibody No 3, lead clone of 4451H (HC N35G; LC L33G, T97I) (antibody, V domains shown)
VH: B1 VH with N35G, I48M, V72R
VL: B1 VL with L33G, R45K, V58I, T97I
B5: Antibody No 6, lead clone of 4451H (HC N35G; LC L33G) (antibody, V domains shown)
VH: B1 VH with N35G, I48M, V72R
VL: B1 VL with L33G, R45K, V58I
B6: Antibody No 17, lead clone of 4451H (HC N35G, T59Y; LC L33G) (antibody, V domains shown)
VH: B1 VH with N35G, I48M, T59Y, V72R
VL: B1 VL with L33G, R45K, V58I
B7: Antibody No 15 (4451HM15), lead clone of 4451H (HC N35G, T59Y; LC K27A) (antibody, V domains shown)
VH: B1 VH with N35G, I48M, T59Y, V72R
VL: B1 VL with K27A, R45K, V58I
B8: Antibody No 16, lead clone of 4451H (HC N35G, T59Y; LC S30K) (antibody, V domains shown)
VH: B1 VH with N35G, I48M, T59Y, V72R
VL: B1 VL with S30K, R45K, V58I
B9: Antibody No 13, lead clone of 4451H (HC T59Y; LC L33G) (antibody, V domains shown)
VH: B1 VH with I48M, T59Y, V72R
VL: B1 VL with L33G, R45K, V58I
B10: Antibody No 14, lead clone of 4451H (HC T59Y; LC T97I) (antibody, V domains shown)
VH: B1 VH with I48M, T59Y, V72R
VL: B1 VL with R45K, V58I, T97I
B11: Antibody No 18, lead clone of 4451H (HC N35G, T59Y; LC T97I) (antibody, V domains shown)
VH: B1 VH with N35G, I48M, T59Y, V72R
VL: B1 VL with R45K, V58I, T97I

Numbering of substitutions follows the chain as printed. In names and notes the source's numbering stands.

For one experiment, the target named is T1, Human CD24. In words: affinity ranking; antibody as ligand, Human CD24 as analyte.
Broadly, the Kd is a measure of binding affinity in units of concentration. A higher Kd goes with weaker binding. By koff is commonly meant the first-order rate constant of dissociation. Higher therefore signals fast dissociation. The term kon denotes the second-order rate constant of association. B1 yielded a Kd of 22 nM, a koff of 0.0234 s⁻¹ and a kon of 1.06e+06 M⁻¹ s⁻¹.
The matching figures for B2: 7.94 nM, 0.0122 s⁻¹ and 1.53e+06 M⁻¹ s⁻¹.
The matching figures for B3: 19.7 nM, 0.0229 s⁻¹ and 1.16e+06 M⁻¹ s⁻¹.

In the next experiment the target is T1, Human CD24. Nature of the experiment: SPR, second 1:1 binding column set.
The molecule B4 displayed a Kd of 4.6 nM, a koff of 0.00766 s⁻¹ and a kon of 1.66e+06 M⁻¹ s⁻¹.
The matching figures for B5: 3.86 nM, 0.00763 s⁻¹ and 1.98e+06 M⁻¹ s⁻¹.
The matching figures for B6: 3.41 nM, 0.00419 s⁻¹ and 1.23e+06 M⁻¹ s⁻¹.
Turning to B7, the Kd came to 3.98 nM, the koff amounted to 0.00509 s⁻¹ and the association rate constant (kon) was found to be 1.28e+06 M⁻¹ s⁻¹.
B8 had a Kd of 6.99 nM, a koff of 0.00808 s⁻¹ and a kon of 1.16e+06 M⁻¹ s⁻¹.

Another experiment deals with T1, Human CD24. Nature of the experiment: SPR affinity ranking, 1:1 binding, analyte conc. 19.71 nM.
The molecule B4 returned a Kd of 7.09 nM, a koff of 0.00827 s⁻¹ and a kon of 1.17e+06 M⁻¹ s⁻¹.
With B5, the Kd came to 5.11 nM, the off-rate constant (koff) turned out to be 0.00796 s⁻¹ and the kon was 1.56e+06 M⁻¹ s⁻¹.
For B9 the same measures were 9.68 nM, 0.0237 s⁻¹ and 2.45e+06 M⁻¹ s⁻¹.
B6 showed a Kd of 4.42 nM, a koff of 0.0069 s⁻¹ and a kon of 1.56e+06 M⁻¹ s⁻¹.
For B7 the same measures were 7.05 nM, 0.00755 s⁻¹ and 1.07e+06 M⁻¹ s⁻¹.
B8 showed a Kd of 7.51 nM, a koff of 0.016 s⁻¹ and a kon of 2.13e+06 M⁻¹ s⁻¹.
Molecule B10 had a Kd of 8.3 nM, a koff of 0.0604 s⁻¹ and a kon of 7.28e+06 M⁻¹ s⁻¹.
For B11 the same measures were 8.83 nM, 0.015 s⁻¹ and 1.7e+06 M⁻¹ s⁻¹.

The next experiment deals with T2, human CD24 on cells. Nature of the experiment: flow cytometry (GMFI), MCF-7 cells; EC50 table under the graphs. For orientation: Flow cytometry measures light scatter and fluorescence of single cells or particles in a stream.
As usually defined, the EC50 is the concentration at which the effect is half-maximal. High values mean lower potency in that assay, low ones higher potency in that assay. Molecule B1 showed an EC50 of 0.75 µg/mL.
In the case of B2, the response was half-maximal at 0.39 µg/mL (EC50).

Values taken from US20260265403A1 (TJ BIOPHARMA SHANGHAI, published 2026).
